Data on two molecules can be found in patent publication US20200377613A1.

The target in this test is survivin peptide coating antigen, not stated which (SEQ ID NO:4 or SEQ ID NO:27). In words: indirect ELISA; coating peptide not stated. Background: In an ELISA, binding on a coated surface is turned into a signal by an enzyme label.

B1: mAb 30H3D2 (antibody, IgG1, V domains shown)
VH: EVQLVESGGDLVKPGGSLKLSCAASGFTFSSYGMSWVRLTPDKRLEWVATISSGGSHTYYPDSVRGRFTISRDNAKNTLYLQMSSLKSEDTAMYYCARHPIYYYISSYAMDYWGQGTSVTVSS
VL: DVVMTQTPLSLPVSLGDQASISCRSSQSLVHSTGNTYLHWYLQKPGQSPKLLIYKVSNRFSGVPDRFGGSGSGTDFTLKISRVEAEDLGVYFCSQSTHVPPTFGGGTKLEIK
B1: the titer (highest dilution with signal to blank ratio >2:1) (dilution (1:x)) was 512000.

B2: mAb 2C2E7 (antibody, IgG2b, V domains shown)
VH: QIQLVQSGPELKKPGETVKISCKASGYTFTTYGMSWVKQAPGRGLKWMGWINPYSGVPTYAVDFKGRFAFSLETSASTAYLQINNLKNEDTATYFCARGGRRGDFGYWGQGTTLTVSS
VL: QIGLTQSPAIMSASPGEKVTMTCSASSSISYMHWYQQKPGTSPKTWIYDTSKLASGVPARFSGSGSGTSYSLTISSMEAEDAATYYCHQRSSHHTFGGGTKLEIK
With B2, the titer (highest dilution with signal to blank ratio >2:1) (dilution (1:x)) is 512000.
